According to the supplement of paper PMC12042874:
± gives the uncertainty stated by the source.

Assay: amyloid nucleation score (Sup35N fusion, yeast selection) (log enrichment); library NNK2; higher = more nucleation; inactive = no reads after selection
Procedure, shortened: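 Plasmid inserts were Illumina-sequenced at input and output from psi-negative yeast expressing Sup35N fused to peptides of 20 random codons. The yeast were induced with 100 μM copper sulfate for 24 hours and grown 7 days at 30°C on medium lacking adenine and uracil, and sequences with under 100 input reads were excluded. Nucleation score is the DiMSum log enrichment of output over input reads, centred on the mode score of non-aggregating sequences.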
Work on ITILCLNVSMVYEVGQ yielded an amyloid nucleation score of 7.778 ± 0.042. For ITIPVNLPLHFLYSGQYHVA, the amyloid nucleation score was -0.307 ± 0.74. In the case of ITIRCGSKDSFMNIGLGKMG, the amyloid nucleation score is reported as 4.09 ± 0.11. In the case of ITLRRLTVITENPLGWNHIT, the amyloid nucleation score is reported as 0.499 ± 0.36. In the case of ITNAYGLIPTNFLCYAFCVI, the amyloid nucleation score is reported as 7.958 ± 0.038. Work on ITSSRDDVSYTVGPKDMFES yielded an amyloid nucleation score of 1.17 ± 0.37. Substance IVAFARVITLMRLLADGSTV has an amyloid nucleation score of 0.608 ± 0.54. IVAGVSSGQGIDQDSIVNKR showed an amyloid nucleation score of 0.102 ± 1.1. IVCIWNTDVLIGKWTHLSWS showed an amyloid nucleation score of 0.883 ± 0.27. For IVFYMSS, the amyloid nucleation score was 1.53 ± 0.095. Work on IVGATYHLSWLPGYTGIYRG yielded an amyloid nucleation score of 1.25 ± 0.47. In the case of IVGDVHSLMILRVKSAFKFT, the amyloid nucleation score is reported as 2.81 ± 0.16. For IVGELVMTFKSVMAARTPFH, the amyloid nucleation score was 4.19 ± 0.064. For IVGNGRMCLRELSRFCFVRC, the amyloid nucleation score was 1.04 ± 0.28. Substance IVGVTYFCGSNRIIMMNGVL has an amyloid nucleation score of 5.956 ± 0.052. In the case of IVICSVFSIMTRLFRSVNGR, the amyloid nucleation score is reported as 8.429 ± 0.062. For IVLTLDLSRRVGMRNCVLLG, the amyloid nucleation score was -0.063 ± 0.54. IVLYVHTTLLAGS showed an amyloid nucleation score of 4.6 ± 0.091. In the case of IVNMMIAANLACAMWSNCKQ, the amyloid nucleation score is reported as 9.266 ± 0.044. For IVQKFCVASCGLEHYVF, the amyloid nucleation score was 6.07 ± 0.073. Work on IVRVSMGYGIIPLICSKTEG yielded an amyloid nucleation score of 0.859 ± 0.74. Work on IVSAMQLEHESQCKFGMNWV yielded an amyloid nucleation score of 0.082 ± 0.42. IVSEIFSG showed an amyloid nucleation score of -0.369 ± 1.1. In the case of IVSETKITIVC, the amyloid nucleation score is reported as -0.275 ± 0.48. Work on IVWGC yielded an amyloid nucleation score of 0.493 ± 0.34. With IWCSTGTFWLGGRLITLWRW the amyloid nucleation score was 1.02 ± 0.28. Work on IWLDSHSSAWISWTIMI yielded an amyloid nucleation score of -0.585 ± 0.41. For IWSYLRSSASWPMNASNTSA, the amyloid nucleation score was 0.905 ± 0.34. IWYCRK showed an amyloid nucleation score of -1.11 ± 0.44. IWYLLFMVDLVKCHTMKTNR showed an amyloid nucleation score of 0.686 ± 0.12. Work on IYDLSCAKARLYVASHSLTL yielded an amyloid nucleation score of 0.418 ± 0.31. With IYDNMVDKFVSKGRCAVSPD the amyloid nucleation score was -0.066 ± 0.55. IYFPP showed an amyloid nucleation score of -0.689 ± 0.4. IYKSRRVRHVLDVVL gave an amyloid nucleation score of -0.241 ± 0.56. Work on IYLFFSCFFAILTNLVRPFA yielded an amyloid nucleation score of 3.83 ± 0.081. In the case of IYLSLATCSGRRRSYSKPSR, the amyloid nucleation score is reported as 0.645 ± 0.47. Substance IYMDLLQNQSIR has an amyloid nucleation score of -1.27 ± 1.1. Work on IYSFSASNW yielded an amyloid nucleation score of 0.048 ± 0.79. IYSGETYKTWLFHGINV showed an amyloid nucleation score of -1.4 ± 0.62. For IYSHESASWWMRRARSS, the amyloid nucleation score was 1.55 ± 0.25. With IYTTYKRTFRS the amyloid nucleation score was -0.553 ± 1.1. In the case of IYWSLMDWLEV, the amyloid nucleation score is reported as 1.22 ± 0.44. Substance KAIDLRVPSMYYRPWVV has an amyloid nucleation score of -0.58 ± 0.76. With KASLGLFYTWVQLSLHISCG the amyloid nucleation score was -0.488 ± 1. With KAVSLPLVGGLC the amyloid nucleation score was -0.684 ± 0.34. KCIYDFHHRKSSVRDSLSFH showed an amyloid nucleation score of -1.6 ± 0.75. In the case of KDAPEECNYVQFKA, the amyloid nucleation score is reported as 0.273 ± 0.61. For KDHSMSELYGGICVRCYKLI, the amyloid nucleation score was -0.378 ± 1. KDLRWVLRWC showed an amyloid nucleation score of 0.912 ± 0.26. With KDNLDQYFTERRGWWLCEVV the amyloid nucleation score was -0.043 ± 0.5. With KDVCY the amyloid nucleation score was 1.31 ± 0.23. In the case of KEMARTSSSRCDITLQWPAS, the amyloid nucleation score is reported as 0.562 ± 0.44. For KENDVNLD, the amyloid nucleation score was 1.5 ± 0.44. KESKLYLFLCFL gave an amyloid nucleation score of 7.832 ± 0.048. Substance KESLAFTSVGVPYVWGLYGE has an amyloid nucleation score of 0.035 ± 0.32. In the case of KFIEHWYVFGYIFLRFYKFQ, the amyloid nucleation score is reported as -0.623 ± 1. With KFLIWRNFLYSVIMAVAW the amyloid nucleation score was “inactive”. KFLKARFGYQST gave an amyloid nucleation score of 1.3 ± 0.13. KFNFS gave an amyloid nucleation score of -0.908 ± 0.44. Work on KFSASKSDISLSSYVVIMFM yielded an amyloid nucleation score of 6.186 ± 0.036. Substance KFSVSLICYVTASRYSNYRE has an amyloid nucleation score of 0.362 ± 0.31. KFVYSGGLFTMLRSC gave an amyloid nucleation score of -0.414 ± 0.61. With KGALCLSV the amyloid nucleation score was -0.148 ± 0.39. Work on KGCVVFFRFSCNCSMICAWV yielded an amyloid nucleation score of -0.668 ± 0.48. KGFAKILLGTSCLMSV showed an amyloid nucleation score of -0.848 ± 0.62. KGGQK gave an amyloid nucleation score of -0.493 ± 0.34. With KGLAREVRCSQYTTVIFVDR the amyloid nucleation score was 5.273 ± 0.043. For KGMLGAASHSQIKFVCVFSW, the amyloid nucleation score was -0.493 ± 0.32. For KGNEY, the amyloid nucleation score was -0.757 ± 0.64. KGPDITEHTITRGPEGNSRY gave an amyloid nucleation score of -0.17 ± 0.65. KGVLSGTWGGIRRIMTHVHD gave an amyloid nucleation score of 0.004 ± 0.36. Work on KHCIIRFIKLGLGKKLKQPV yielded an amyloid nucleation score of -1.02 ± 0.36. In the case of KHFRREW, the amyloid nucleation score is reported as 1.35 ± 0.41. Work on KHIDVRSNVWTRPHSKWLWS yielded an amyloid nucleation score of 0.403 ± 0.2. Substance KHIKWKDCSG has an amyloid nucleation score of -0.091 ± 0.65. With KHILGQTWHSHCWFHTFEGV the amyloid nucleation score was 2.26 ± 0.22. Substance KIERC has an amyloid nucleation score of -0.077 ± 0.63. With KIFFGNNRF the amyloid nucleation score was 3.4 ± 0.13. Substance KIINNSANGNIYVVNRVLTL has an amyloid nucleation score of 8.174 ± 0.046. Substance KILGWT has an amyloid nucleation score of 0.836 ± 0.21. KINMLCFSWGSCVGGCRKVC gave an amyloid nucleation score of 7.063 ± 0.055. KISVWGYRFLDRH showed an amyloid nucleation score of 0.072 ± 0.21. In the case of KIVCDPGCIFMPFLCVCLLW, the amyloid nucleation score is reported as 6.07 ± 0.082. KKAVSACPLEYSVVINISGG gave an amyloid nucleation score of 7.985 ± 0.026. KLAYCYSSYSHHD gave an amyloid nucleation score of 0.316 ± 0.65. In the case of KLDWSNRLCSLNFECSCQLL, the amyloid nucleation score is reported as 3.78 ± 0.094.
